Results published in article PMC7114193.

Assays:
Settings in all cases: modification not given
[1] = target: ACE2 (Homo sapiens), Q9BYF1; assay: SPR
[2] = target: ACE2 (Homo sapiens), Q9BYF1; assay: SPR; remark: listed apart in the source
[3] = target: ACE2 (Homo sapiens), Q9BYF1; assay: SPR; remark: listed apart in the source
[4] = target: ACE2 (Homo sapiens), Q9BYF1; assay: NMR
[5] = target: ACE2 (Homo sapiens), Q9BYF1; assay: SPR; remark: listed apart in the source

Sequence of ACE2 (Homo sapiens), Q9BYF1 (Q9BYF1 18-740): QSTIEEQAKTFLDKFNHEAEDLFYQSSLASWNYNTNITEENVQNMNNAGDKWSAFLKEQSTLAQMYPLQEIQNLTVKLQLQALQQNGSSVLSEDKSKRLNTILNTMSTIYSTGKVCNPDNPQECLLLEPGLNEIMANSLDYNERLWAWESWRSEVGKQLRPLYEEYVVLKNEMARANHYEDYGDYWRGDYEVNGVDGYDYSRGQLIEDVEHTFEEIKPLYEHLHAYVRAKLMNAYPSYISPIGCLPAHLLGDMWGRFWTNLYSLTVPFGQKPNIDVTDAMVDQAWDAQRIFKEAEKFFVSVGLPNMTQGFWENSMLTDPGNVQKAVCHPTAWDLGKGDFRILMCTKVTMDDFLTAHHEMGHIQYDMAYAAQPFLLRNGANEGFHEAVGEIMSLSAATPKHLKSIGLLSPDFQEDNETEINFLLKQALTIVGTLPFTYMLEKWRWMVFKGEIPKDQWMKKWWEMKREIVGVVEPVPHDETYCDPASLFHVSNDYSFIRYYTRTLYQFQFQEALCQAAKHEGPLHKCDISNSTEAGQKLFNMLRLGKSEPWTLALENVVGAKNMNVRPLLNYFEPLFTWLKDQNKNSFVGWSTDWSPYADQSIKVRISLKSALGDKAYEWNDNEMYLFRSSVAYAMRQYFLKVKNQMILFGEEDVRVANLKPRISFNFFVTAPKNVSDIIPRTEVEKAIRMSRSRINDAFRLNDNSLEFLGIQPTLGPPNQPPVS

TTGIGYQPYRVV [RBD-15 peptide, P59594]
Kd [1]: 672 µM
Kd [2]: 450 µM

CYWPLNDYGFYT [RBD-14 peptide, P59594]
Kd [2]: 430 µM
Kd [3]: 450 µM

YKYRYL [RBD-11b peptide]
Kd [4]: 60 µM
Kd [2]: 46 µM

YKYRYLRHGKLR [RBD-11 peptide, P59594]
Kd [2]: 67 µM
Kd [5]: 85 µM
